# Where “and” joins values, the source holds several entries; their conditions need not be identical. Identical values can stand only once.
# B1: HMPV nucleoprotein N, assembled RNA-bound state (N-RNA rings) (natural protein)
# chain: MSLQGIHLSDLSYKHAILKESQYTIKRDVGTTTAVTPSSLQQEITLLCGEILYAKHADYKYAAEIGIQYISTALGSERVQQILRNSGSEVQVVLTRTYSLGKIKNNKGEDLQMLDIHGVEKSWVEEIDKEARKTMATLLKESSGNIPQNQRPSAPDTPIILLCVGALIFTKLASTIEVGLETTVRRANRVLSDALKRYPRMDIPKIARSFYDLFEQKVYHRSLFIEYGKALGSSSTGSKAESLFVNIFMQAYGAGQTMLRWGVIARSSNNIMLGHVSVQAELKQVTEVYDLVREMGPESGLLHLRQSPKAGLLSLANCPNFASVVLGNASGLGIIGMYRGRVPNTELFSAAESYAKSLKESNKINFSSLGLTDEEKEAAEHFLNVSDDSQNDYE
# notes: Nucleoprotein N of human metapneumovirus, strain NL1-00 (A1), full-length N gene, 394 residues; each N subunit contacts seven RNA nucleotides; also called subnucleocapsid ring; decameric N-RNA ring; source: Rosetta2 E. coli, purified (Ni-NTA, Superose 6), with RNA from the expression host
# How the values were obtained:
# [1] = target: the molecule itself; test: crystal structure; N-RNA ring (~4 mg/mL), RNA-bound; 100 mM Tris/Bicine pH 8.5, 90 mM NPS, 37.5% MPD/PEG 1000/PEG 3350 (MORPHEUS); 4.2 Å; ten-fold non-crystallographic symmetry
# [2] = target: the molecule itself; test: electron cryomicroscopy with 2D classification; purified N-RNA preparation plunge-frozen on holey carbon grids; 2D-class averages with RELION
protein,measurement,setting,value
B1,stoichiometry N,[1],10
same,stoichiometry N,[2],9 and 11

# — publication PMC4798948, “Nucleocapsid assembly in pneumoviruses is regulated by conformational switching of the N protein” (eLife, 2016)
